Results published in article PMC4838861.

How the values were obtained:
[1] = target: yeast V-ATPase c subunit ring (c8c’c”) (S. cerevisiae) (UniProt P25515); test: negative-stain EM with single-particle class averaging; c-ring (1.5 mg/ml) mixed with DOPC, detergent removed with BioBeads for 7 days (incomplete); 4337 images of dumbbell-shaped particles outside the bilayers sorted into 16 classes (EMAN1.9)
[2] = target: yeast V-ATPase c subunit ring (c8c’c”) (S. cerevisiae) (UniProt P25515); test: SEC + other: negative-stain EM; purified c-ring (1 mg) on Superdex 200 in buffer with 0.1% DDM (also in UnDM or DM); peak fractions 48 and 58 viewed by negative-stain EM

yeast V-ATPase c subunit ring (c8c’c”) (from UniProt P25515 1-160; P32842 1-164; P23968 1-213) (complex)
stoichiometry N [1]: 2
stoichiometry N [2]: 2
